Publication PMC3059592 (Virology, 2010)
“And” between values parts separate entries of the source, which are not always exact repeats. Equal values may be shown once.

Molecular target: the molecule itself
Experiment: sucrose density gradient centrifugation

B1: PIV-5 hemagglutinin-neuraminidase (HN) protein, mutant E37D (natural protein)
chain: MVAEDAPVRATCRVLFRTTTLIFLCTLLALSISILYDSLITQKQIMSQAGSTGSNSGLGSITDLLNNILSVANQIIYNSAVALPLQLDTLESTLLTAIKSLQTSDKLEQNCSWSAALINDNRYINGINQFYFSIAEGRNLTLGPLLNMPSFIPTATTPEGCTRIPSFSLTKTHWCYTHNVILNGCQDHVSSNQFVSMGIIEPTSAGFPFFRTLKTLYLSDGVNRKSCSISTVPGGCMMYCFVSTQPERDDYFSAAPPEQRIIIMYYNDTIVERIINPPGVLDVWATLNPGTGSGVYYLGWVLFPIYGGVIKGTSLWNNQANKYFIPQMVAALCSQNQATQVQNAKSSYYSSWFGNRMIQSGILACPLRQDLTNECLVLPFSNDQVLMGAEGRLYMYGDSVYYYQRSNSWWPMTMLYKVTITFTNGQPSAISAQNVPTQQVPRPGTGDCSATNRCPGFCLTGVYADAWLLTNPSSTSTFGSEATFTGSYLNTATQRINPTMYIANNTQIISSQQFGSSGQEAAYGHTTCFRDTGSVMVYCIYIIELSSSLLGQFQIVPFIRQVTLS
stoichiometry N: 2 and 4
